Data reported in US7981863.

Target: VEGF receptor Flk-1 on rat neural stem cells (rat) (UniProt O08775)
Assay: cell-based or functional assay

VEGF receptor Flk-1 on rat neural stem cells (rat), sequence (O08775 20-1343): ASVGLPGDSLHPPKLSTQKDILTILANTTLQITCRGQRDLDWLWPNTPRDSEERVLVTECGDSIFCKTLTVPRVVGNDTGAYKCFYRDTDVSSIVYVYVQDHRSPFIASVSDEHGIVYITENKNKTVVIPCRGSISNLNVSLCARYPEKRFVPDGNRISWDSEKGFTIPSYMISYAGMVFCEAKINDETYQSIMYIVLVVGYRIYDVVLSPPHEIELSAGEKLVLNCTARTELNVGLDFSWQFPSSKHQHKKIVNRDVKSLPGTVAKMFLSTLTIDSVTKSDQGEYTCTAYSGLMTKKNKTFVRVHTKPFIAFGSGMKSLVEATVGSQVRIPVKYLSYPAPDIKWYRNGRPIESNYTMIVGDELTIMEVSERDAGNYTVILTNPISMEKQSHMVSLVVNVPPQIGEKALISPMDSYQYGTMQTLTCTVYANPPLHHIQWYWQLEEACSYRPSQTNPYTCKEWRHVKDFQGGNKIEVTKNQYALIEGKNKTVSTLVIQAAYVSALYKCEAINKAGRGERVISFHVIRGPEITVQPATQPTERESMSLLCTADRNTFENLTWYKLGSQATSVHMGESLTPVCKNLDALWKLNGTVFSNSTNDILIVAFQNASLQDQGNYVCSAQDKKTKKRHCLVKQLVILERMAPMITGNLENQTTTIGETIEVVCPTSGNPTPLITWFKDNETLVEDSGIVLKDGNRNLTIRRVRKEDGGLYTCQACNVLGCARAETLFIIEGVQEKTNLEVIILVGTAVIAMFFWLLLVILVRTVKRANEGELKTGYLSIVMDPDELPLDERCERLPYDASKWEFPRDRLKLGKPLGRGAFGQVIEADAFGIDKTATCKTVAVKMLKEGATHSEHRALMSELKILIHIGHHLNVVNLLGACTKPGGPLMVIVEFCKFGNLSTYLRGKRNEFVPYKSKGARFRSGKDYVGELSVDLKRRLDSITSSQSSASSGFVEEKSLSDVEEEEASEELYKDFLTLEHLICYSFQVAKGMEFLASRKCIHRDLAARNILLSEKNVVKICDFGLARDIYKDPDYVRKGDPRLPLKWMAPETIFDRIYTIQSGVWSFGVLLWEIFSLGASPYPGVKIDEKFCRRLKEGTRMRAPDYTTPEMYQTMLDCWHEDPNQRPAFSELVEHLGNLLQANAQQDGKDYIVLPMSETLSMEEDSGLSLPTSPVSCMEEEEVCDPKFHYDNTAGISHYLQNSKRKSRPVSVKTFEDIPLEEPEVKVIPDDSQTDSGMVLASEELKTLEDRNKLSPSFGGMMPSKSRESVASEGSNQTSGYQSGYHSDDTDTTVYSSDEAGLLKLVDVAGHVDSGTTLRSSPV

Substance “mouse recombinant VEGF164 (from UniProt Q00731 27-190) (ligand)” has an ED50 of expansion of neural stem cell cultures (cell number after 7 days) of 10 ng/mL and a concentration of maximal stimulation of neural stem cell expansion of 50 ng/mL.
